The target of test [1] is human integrin αvβ3 (human) (UniProt P06756). Nature of the test: flow cytometry on HMVEC-d; competitor mAb LM609. (A flow cytometer gives signals particle by particle.)
Test [2] addresses human integrin α5β1 (human) (UniProt P08648). Nature of the test: flow cytometry on HMVEC-d; competitor mAb SAM-1.
Test [3] concerns the target human integrin αvβ5 (human) (UniProt P06756). Nature of the test: flow cytometry on HMVEC-d; competitor mAb MAB 1961.
For the next test, the target named is α6β1.α6β4 (human) (UniProt P23229). Kind of test: flow cytometry on HMVEC-d; competitor α6 integrin mAb (GoH3 and/or 439-9B).
UniProt P23229, sequence (P23229 24-1130): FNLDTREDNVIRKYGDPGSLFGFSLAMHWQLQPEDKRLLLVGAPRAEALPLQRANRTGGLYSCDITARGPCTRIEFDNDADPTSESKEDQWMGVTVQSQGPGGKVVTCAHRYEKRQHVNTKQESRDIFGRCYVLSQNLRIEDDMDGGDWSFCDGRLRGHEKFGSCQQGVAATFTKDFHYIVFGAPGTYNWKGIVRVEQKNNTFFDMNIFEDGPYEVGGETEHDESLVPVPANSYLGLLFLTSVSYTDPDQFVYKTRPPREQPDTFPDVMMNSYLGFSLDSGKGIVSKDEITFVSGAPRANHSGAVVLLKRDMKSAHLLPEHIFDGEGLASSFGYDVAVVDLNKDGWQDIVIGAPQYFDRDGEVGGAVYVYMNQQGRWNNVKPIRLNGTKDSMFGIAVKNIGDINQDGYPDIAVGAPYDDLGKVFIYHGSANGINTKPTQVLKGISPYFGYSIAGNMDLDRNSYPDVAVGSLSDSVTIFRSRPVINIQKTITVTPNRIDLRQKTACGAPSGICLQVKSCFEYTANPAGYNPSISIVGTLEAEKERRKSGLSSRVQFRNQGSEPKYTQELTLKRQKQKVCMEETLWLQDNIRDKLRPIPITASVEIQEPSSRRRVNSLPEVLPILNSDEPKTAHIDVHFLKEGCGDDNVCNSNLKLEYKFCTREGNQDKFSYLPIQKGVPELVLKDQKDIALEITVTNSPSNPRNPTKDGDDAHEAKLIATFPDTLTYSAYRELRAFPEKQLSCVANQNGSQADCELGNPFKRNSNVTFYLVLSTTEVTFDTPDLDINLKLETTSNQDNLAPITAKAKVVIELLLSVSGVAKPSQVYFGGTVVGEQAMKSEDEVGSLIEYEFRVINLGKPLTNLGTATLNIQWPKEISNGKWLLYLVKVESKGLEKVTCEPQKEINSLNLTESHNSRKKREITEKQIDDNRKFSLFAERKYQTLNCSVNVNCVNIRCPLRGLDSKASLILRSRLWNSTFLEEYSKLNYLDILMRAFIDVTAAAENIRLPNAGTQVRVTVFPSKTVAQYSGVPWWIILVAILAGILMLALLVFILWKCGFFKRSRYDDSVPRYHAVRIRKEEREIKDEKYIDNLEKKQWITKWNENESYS
The target of test [4] is human integrin α2β1 (human) (UniProt P17301). Nature of the test: flow cytometry on HMVEC-d; competitor mAb BHA2.1.
UniProt P17301, sequence (P17301 30-1181, chain 1 of 2): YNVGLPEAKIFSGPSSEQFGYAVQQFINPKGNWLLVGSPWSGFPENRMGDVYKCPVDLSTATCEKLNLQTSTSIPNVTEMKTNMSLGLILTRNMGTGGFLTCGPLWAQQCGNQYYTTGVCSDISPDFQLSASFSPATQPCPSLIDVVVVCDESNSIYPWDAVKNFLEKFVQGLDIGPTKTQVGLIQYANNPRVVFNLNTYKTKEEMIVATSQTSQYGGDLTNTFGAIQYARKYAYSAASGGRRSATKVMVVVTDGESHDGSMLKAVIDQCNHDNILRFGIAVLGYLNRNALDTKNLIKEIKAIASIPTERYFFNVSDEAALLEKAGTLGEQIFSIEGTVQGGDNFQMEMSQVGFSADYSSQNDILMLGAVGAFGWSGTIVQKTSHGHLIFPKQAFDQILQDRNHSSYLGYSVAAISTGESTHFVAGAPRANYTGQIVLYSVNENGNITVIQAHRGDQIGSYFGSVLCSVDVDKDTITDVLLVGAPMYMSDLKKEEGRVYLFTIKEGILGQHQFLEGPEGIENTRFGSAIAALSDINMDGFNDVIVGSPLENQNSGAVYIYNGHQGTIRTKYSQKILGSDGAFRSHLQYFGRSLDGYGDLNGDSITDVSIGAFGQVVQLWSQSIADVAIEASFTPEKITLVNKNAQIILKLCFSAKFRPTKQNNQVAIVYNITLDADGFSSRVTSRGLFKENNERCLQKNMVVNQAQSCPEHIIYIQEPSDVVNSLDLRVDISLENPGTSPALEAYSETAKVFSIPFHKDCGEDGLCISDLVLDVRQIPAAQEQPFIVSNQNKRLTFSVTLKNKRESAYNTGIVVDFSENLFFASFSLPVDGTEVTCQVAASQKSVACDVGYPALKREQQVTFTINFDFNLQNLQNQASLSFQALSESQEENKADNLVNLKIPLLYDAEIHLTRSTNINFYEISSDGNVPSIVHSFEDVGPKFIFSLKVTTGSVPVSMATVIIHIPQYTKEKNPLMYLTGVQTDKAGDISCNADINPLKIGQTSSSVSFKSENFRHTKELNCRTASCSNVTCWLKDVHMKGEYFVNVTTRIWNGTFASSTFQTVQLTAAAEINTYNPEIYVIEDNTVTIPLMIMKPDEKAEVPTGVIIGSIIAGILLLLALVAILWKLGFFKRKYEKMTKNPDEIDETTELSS
UniProt P17301, sequence (P05556 21-798, chain 2 of 2, further chain): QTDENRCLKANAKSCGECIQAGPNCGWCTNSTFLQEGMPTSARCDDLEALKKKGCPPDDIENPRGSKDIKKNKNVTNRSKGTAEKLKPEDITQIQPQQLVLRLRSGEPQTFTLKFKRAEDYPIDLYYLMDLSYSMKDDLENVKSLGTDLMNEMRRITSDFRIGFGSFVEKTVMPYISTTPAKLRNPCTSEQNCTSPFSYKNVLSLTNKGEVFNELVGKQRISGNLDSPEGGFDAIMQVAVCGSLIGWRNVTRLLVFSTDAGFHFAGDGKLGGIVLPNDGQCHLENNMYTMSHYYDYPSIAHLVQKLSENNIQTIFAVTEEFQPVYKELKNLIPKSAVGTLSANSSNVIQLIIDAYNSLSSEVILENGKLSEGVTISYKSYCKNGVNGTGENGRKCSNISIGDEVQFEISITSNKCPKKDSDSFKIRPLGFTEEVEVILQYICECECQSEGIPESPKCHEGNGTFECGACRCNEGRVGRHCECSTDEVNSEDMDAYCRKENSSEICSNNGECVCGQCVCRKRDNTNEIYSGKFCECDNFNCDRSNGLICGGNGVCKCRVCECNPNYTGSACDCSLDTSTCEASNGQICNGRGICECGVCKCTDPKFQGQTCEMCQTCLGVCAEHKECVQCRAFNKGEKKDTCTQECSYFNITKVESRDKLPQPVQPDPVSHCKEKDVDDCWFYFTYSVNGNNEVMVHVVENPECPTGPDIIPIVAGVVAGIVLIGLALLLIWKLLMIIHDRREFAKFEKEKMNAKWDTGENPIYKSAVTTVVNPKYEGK

The results in this text go back to patent publication EP1803810A1.

UniProt P08648, sequence (P08648 42-1049, chain 1 of 2): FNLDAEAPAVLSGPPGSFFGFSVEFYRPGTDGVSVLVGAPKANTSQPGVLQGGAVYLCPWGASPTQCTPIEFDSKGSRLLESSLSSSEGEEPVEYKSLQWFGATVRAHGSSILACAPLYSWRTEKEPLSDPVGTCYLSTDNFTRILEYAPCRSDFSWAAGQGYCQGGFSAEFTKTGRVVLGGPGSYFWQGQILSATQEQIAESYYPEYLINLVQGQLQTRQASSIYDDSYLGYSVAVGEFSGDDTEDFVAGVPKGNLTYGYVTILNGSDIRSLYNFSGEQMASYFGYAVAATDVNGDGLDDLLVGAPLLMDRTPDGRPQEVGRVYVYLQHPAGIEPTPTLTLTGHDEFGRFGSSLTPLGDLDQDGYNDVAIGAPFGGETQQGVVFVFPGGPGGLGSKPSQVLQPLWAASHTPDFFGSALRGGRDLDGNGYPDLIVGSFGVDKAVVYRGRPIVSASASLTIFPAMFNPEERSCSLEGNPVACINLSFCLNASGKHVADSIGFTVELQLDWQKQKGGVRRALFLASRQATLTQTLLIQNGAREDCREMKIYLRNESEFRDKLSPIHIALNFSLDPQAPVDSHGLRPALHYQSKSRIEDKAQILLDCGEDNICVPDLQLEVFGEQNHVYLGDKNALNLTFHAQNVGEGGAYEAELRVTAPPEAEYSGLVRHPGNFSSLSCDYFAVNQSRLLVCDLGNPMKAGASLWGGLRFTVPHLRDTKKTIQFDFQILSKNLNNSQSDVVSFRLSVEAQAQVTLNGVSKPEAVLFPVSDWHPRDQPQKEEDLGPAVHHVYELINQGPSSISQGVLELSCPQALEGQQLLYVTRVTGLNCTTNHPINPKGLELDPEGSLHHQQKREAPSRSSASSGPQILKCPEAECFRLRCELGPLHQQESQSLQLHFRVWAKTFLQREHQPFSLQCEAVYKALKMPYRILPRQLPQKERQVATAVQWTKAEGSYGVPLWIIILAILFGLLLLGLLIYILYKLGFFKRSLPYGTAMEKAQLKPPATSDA
UniProt P08648, sequence (P05556 21-798, chain 2 of 2, further chain): as the sequence (P05556 21-798, chain 2 of 2, further chain) above

Take ADAM-15dis-Fc (Fc fusion): the figures for the percent inhibition of binding by integrin mAb in test [1], in test [2] and in test [3] were 60%, 30% and 25%, respectively.

For ADAM-22dis-Fc (Fc fusion), the percent inhibition of binding by integrin mAb in test [1] was found to be 42%; in test [2], 36%; in the test with α6β1.α6β4 (human) it was 32%.

Consider ADAM-20dis-Fc (Fc fusion), for which the percent inhibition of binding by integrin mAb in test [1] was 58%.

Regarding ADAM-23dis-Fc (Fc fusion), the percent inhibition of binding by integrin mAb came to 49% in test [2], 22% in test [4] and 31% with α6β1.α6β4 (human).

ADAM-21dis-Fc (Fc fusion) showed a percent inhibition of binding by integrin mAb in test [2] of 54%.
